Test results: US8729232

System: T1, biotinylated 13-mer peptide LCTPSKGSLFTGR (native Mtb motif with arginine to lysine substitution at position 6)
T1 sequence: LCTPSKGSLFTGR

Q: How did the “FGly conversion detected by MALDI-TOF” value turn out when “Mycobacterium tuberculosis formylglycine generating enzyme (Mtb FGE, Rv0712), recombinant” was run?
A: A peak indicating the FGly-modified species appeared
